Legend:
[1] = system: FLAG-tagged JNK1(Arg-309-Trp) from the pCMV-FLAG vector, expressed in COS cells
[2] = system: FLAG-tagged JNK1(Leu-131-Arg) from the pCMV-FLAG vector, expressed in COS cells
[3] = system: FLAG-tagged JNK1(Tyr-320-His) from the pCMV-FLAG vector, expressed in COS cells
[4] = system: FLAG-tagged wild-type JNK1 from pCMV-FLAG-JNK1, expressed in COS cells
Chain of FLAG-tagged wild-type JNK1 from pCMV-FLAG-JNK1, expressed in COS cells (chain, as listed by the source): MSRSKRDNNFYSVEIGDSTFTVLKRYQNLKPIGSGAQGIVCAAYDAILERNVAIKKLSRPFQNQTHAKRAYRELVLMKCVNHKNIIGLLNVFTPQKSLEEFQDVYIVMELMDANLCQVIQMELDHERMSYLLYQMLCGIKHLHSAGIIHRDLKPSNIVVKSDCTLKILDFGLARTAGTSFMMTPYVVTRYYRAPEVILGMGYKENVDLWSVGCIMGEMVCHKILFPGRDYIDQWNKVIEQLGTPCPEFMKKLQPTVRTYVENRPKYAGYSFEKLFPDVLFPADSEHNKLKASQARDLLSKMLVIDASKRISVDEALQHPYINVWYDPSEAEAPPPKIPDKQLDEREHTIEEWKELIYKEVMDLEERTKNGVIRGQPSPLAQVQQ

Chain of FLAG-tagged JNK1(Tyr-320-His) from the pCMV-FLAG vector, expressed in COS cells (chain, as listed by the source Y320H): as the sequence (chain, as listed by the source) above, with Y320H counted along it
Chain of FLAG-tagged JNK1(Leu-131-Arg) from the pCMV-FLAG vector, expressed in COS cells (chain, as listed by the source L131R): as the sequence (chain, as listed by the source) above, with L131R counted along it
Chain of FLAG-tagged JNK1(Arg-309-Trp) from the pCMV-FLAG vector, expressed in COS cells (chain, as listed by the source R309W): as the sequence (chain, as listed by the source) above, with R309W counted along it

Substance: GST-MKK4(ED), constitutively active form of MKK4
- phosphorylation of immunoprecipitated FLAG-JNK by GST-MKK4(ED), in vitro kinase assay with [32P]ATP, autoradiography [1]: the negligible amount of radioactive phosphate incorporated into any of the three JNK mutants was not increased by the presence of active MKK4
- phosphorylation of immunoprecipitated FLAG-JNK by GST-MKK4(ED), in vitro kinase assay with [32P]ATP, autoradiography [2]: the negligible amount of radioactive phosphate incorporated into any of the three JNK mutants was not increased by the presence of active MKK4
- phosphorylation of immunoprecipitated FLAG-JNK by GST-MKK4(ED), in vitro kinase assay with [32P]ATP, autoradiography [3]: the negligible amount of radioactive phosphate incorporated into any of the three JNK mutants was not increased by the presence of active MKK4
- phosphorylation of immunoprecipitated FLAG-JNK by GST-MKK4(ED), in vitro kinase assay with [32P]ATP, autoradiography [4]: The presence of active MKK4 increased the phosphorylation of wildtype JNK relative to the autophosphorylation that occurred in the absence of any upstream activator protein

From patent US20080044815
